{
  "source": "patent US20130287781A1",
  "key": {"[1]": {"molecular_target": "GST-human NOGO-A56 (human)", "sequence (chain, as listed by the source limits assumed)": "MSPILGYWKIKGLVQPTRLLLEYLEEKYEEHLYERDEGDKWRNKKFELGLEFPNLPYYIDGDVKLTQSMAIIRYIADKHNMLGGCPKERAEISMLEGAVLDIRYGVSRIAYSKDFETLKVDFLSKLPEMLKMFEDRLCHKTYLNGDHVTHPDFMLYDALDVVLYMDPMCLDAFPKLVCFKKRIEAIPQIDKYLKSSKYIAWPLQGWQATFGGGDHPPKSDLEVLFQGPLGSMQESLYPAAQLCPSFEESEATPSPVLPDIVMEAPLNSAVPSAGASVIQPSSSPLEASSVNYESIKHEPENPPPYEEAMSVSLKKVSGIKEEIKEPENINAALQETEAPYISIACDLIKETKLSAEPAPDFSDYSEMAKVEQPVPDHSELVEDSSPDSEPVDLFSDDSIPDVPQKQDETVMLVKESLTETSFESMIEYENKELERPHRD", "test": "SPR (Biacore T100), reverse format: antibody captured by Protein A, GST-NOGO-A56 flowed over; mean"}, "[2]": {"molecular_target": "Squirrel monkey NOGO (A56) plus GST tag (squirrel monkey)", "sequence (chain, as listed by the source limits assumed)": "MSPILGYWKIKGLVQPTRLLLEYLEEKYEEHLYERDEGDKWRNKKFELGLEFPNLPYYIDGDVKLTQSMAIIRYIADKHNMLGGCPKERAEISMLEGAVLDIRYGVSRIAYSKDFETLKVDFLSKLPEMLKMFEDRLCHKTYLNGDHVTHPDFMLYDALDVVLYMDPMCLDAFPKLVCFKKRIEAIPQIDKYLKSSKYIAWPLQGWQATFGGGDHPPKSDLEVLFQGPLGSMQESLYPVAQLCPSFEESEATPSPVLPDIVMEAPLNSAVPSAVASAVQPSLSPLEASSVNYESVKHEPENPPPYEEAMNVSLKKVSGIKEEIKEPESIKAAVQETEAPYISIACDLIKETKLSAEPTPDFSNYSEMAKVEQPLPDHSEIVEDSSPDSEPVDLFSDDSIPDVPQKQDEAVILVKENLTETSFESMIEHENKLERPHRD", "test": "SPR (Biacore T100), reverse format: antibody captured by Protein A, GST-NOGO-A56 flowed over; mean"}, "[3]": {"molecular_target": "Cynomolgus monkey NOGO (A56) plus GST tag (cynomolgus monkey)", "sequence (chain, as listed by the source limits assumed)": "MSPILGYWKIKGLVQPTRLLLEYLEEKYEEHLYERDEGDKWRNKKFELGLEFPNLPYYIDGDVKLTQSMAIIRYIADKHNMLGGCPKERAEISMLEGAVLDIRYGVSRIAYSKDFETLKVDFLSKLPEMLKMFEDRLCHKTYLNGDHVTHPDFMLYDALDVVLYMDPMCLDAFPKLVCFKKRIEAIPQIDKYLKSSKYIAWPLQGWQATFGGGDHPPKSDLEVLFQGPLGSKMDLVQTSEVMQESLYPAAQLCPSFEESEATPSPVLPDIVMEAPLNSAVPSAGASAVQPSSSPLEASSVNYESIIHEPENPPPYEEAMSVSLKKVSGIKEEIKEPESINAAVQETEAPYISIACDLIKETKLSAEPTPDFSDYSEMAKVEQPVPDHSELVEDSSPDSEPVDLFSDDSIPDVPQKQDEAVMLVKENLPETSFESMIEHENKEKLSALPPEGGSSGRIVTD", "test": "SPR (Biacore T100), reverse format: antibody captured by Protein A, GST-NOGO-A56 flowed over; mean"}, "[4]": {"molecular_target": "Marmoset NOGO (A56) plus GST tag (marmoset)", "sequence (chain, as listed by the source limits assumed)": "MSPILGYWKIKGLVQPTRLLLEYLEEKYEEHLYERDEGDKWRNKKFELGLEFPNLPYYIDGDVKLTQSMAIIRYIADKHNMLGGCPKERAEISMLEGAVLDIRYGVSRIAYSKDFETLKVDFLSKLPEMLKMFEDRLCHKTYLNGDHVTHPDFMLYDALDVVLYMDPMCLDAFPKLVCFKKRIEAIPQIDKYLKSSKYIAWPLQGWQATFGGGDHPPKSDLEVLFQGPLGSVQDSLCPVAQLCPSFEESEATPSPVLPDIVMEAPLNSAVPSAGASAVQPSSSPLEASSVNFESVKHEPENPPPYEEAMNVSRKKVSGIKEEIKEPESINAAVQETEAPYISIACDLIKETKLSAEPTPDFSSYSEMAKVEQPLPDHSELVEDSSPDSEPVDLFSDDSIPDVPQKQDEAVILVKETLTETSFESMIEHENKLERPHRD", "test": "SPR (Biacore T100), reverse format: antibody captured by Protein A, GST-NOGO-A56 flowed over; mean"}, "[5]": {"molecular_target": "Rat NOGO (A56) plus GST tag (rat)", "sequence (chain, as listed by the source limits assumed)": "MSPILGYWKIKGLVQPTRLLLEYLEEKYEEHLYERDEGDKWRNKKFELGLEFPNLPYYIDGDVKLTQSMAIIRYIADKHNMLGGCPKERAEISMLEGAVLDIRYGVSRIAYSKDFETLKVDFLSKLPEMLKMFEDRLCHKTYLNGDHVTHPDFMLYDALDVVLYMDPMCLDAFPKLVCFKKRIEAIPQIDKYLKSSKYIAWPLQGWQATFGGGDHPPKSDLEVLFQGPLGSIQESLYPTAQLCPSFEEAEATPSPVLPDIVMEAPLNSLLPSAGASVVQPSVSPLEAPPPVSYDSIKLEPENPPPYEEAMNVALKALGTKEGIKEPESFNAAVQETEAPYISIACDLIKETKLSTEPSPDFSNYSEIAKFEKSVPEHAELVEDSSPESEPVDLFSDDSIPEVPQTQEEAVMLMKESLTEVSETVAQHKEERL", "test": "SPR (Biacore T100), reverse format: antibody captured by Protein A, GST-NOGO-A56 flowed over; mean"}, "[6]": {"molecular_target": "GST-human NOGO-A56 (human)", "test": "SPR (Biacore T100), human Nogo-A amine-coupled to CM5, antibody 0.125-8 nM flowed over; mean"}, "[7]": {"molecular_target": "Squirrel monkey NOGO (A56) plus GST tag (squirrel monkey)", "test": "direct ELISA on GST-NOGO-A56 from squirrel monkey, Abs490"}, "[8]": {"molecular_target": "Rat NOGO (A56) plus GST tag (rat)", "test": "direct ELISA on GST-NOGO-A56 from rat, Abs490"}, "[9]": {"molecular_target": "Cynomolgus monkey NOGO (A56) plus GST tag (cynomolgus monkey)", "test": "direct ELISA on GST-NOGO-A56 from cynomolgus, Abs490"}, "[10]": {"molecular_target": "Marmoset NOGO (A56) plus GST tag (marmoset)", "test": "direct ELISA on GST-NOGO-A56 from marmoset, Abs490"}, "[11]": {"molecular_target": "Squirrel monkey NOGO (A56) plus GST tag (squirrel monkey)", "test": "SPR (Biacore T100), Nogo-A orthologue amine-coupled to CM5, antibody 0.125-8 nM flowed over; mean"}, "[12]": {"molecular_target": "Cynomolgus monkey NOGO (A56) plus GST tag (cynomolgus monkey)", "test": "SPR (Biacore T100), Nogo-A orthologue amine-coupled to CM5, antibody 0.125-8 nM flowed over; mean"}, "[13]": {"molecular_target": "Marmoset NOGO (A56) plus GST tag (marmoset)", "test": "SPR (Biacore T100), Nogo-A orthologue amine-coupled to CM5, antibody 0.125-8 nM flowed over; mean"}, "[14]": {"molecular_target": "Rat NOGO (A56) plus GST tag (rat)", "test": "SPR (Biacore T100), Nogo-A orthologue amine-coupled to CM5, antibody 0.125-8 nM flowed over; mean"}},
  "data": [
    {"substance": "chimeric 11C7 (antibody)", "values": [
      {"measurement": "Kd", "setting": "[1]", "result": 0.57, "unit": "nM"},
      {"measurement": "Kd", "setting": "[2]", "result": 2.69, "unit": "nM"},
      {"measurement": "Kd", "setting": "[3]", "result": 0.76, "unit": "nM"},
      {"measurement": "Kd", "setting": "[4]", "result": 1.33, "unit": "nM"},
      {"measurement": "Kd", "setting": "[5]", "result": 0.64, "unit": "nM"},
      {"measurement": "Kd", "setting": "[6]", "result": 0.19, "unit": "nM"},
      {"measurement": "EC50 (read off the curve)", "setting": "[7]", "result": 0.04, "unit": "µg/mL"},
      {"measurement": "EC50 (read off the curve)", "setting": "[8]", "result": 0.06, "unit": "µg/mL"},
      {"measurement": "EC50 (read off the curve)", "setting": "[9]", "result": 0.06, "unit": "µg/mL"},
      {"measurement": "EC50 (read off the curve)", "setting": "[10]", "result": 0.04, "unit": "µg/mL"},
      {"measurement": "Kd", "setting": "[11]", "result": 0.26, "unit": "nM"},
      {"measurement": "Kd", "setting": "[12]", "result": 0.23, "unit": "nM"},
      {"measurement": "Kd", "setting": "[13]", "result": 0.24, "unit": "nM"},
      {"measurement": "Kd", "setting": "[14]", "result": 0.11, "unit": "nM"}
    ]}
  ]
}
